# B1: Flag-tagged WT PKGIα (type I cGMP-dependent protein kinase, alpha isoform) (enzyme, UniProt Q13976 1-671, looked up)
# chain: MSELEEDFAKILMLKEERIKELEKRLSEKEEEIQELKRKLHKCQSVLPVPSTHIGPRTTRAQGISAEPQTYRSFHDLRQAFRKFTKSERSKDLIKEAILDNDFMKNLELSQIQEIVDCMYPVEYGKDSCIIKEGDVGSLVYVMEDGKVEVTKEGVKLCTMGPGKVFGELAILYNCTRTATVKTLVNVKLWAIDRQCFQTIMMRTGLIKHTEYMEFLKSVPTFQSLPEEILSKLADVLEETHYENGEYIIRQGARGDTFFIISKGTVNVTREDSPSEDPVFLRTLGKGDWFGEKALQGEDVRTANVIAAEAVTCLVIDRDSFKHLIGGLDDVSNKAYEDAEAKAKYEAEAAFFANLKLSDFNIIDTLGVGGFGRVELVQLKSEESKTFAMKILKKRHIVDTRQQEHIRSEKQIMQGAHSDFIVRLYRTFKDSKYLYMLMEACLGGELWTILRDRGSFEDSTTRFYTACVVEAFAYLHSKGIIYRDLKPENLILDHRGYAKLVDFGFAKKIGFGKKTWTFCGTPEYVAPEIILNKGHDISADYWSLGILMYELLTGSPPFSGPDPMKTYNIILRGIDMIEFPKKIAKNAANLIKKLCRDNPSERLGNLKNGVKDIQKHKWFEGFNWEGLRKGTLTPPIIPSVASPTDTSNFDSFPEDNDEPPPDDNSGWDIDF
# notes: PKGIα, the alpha isoform of type I cGMP-dependent protein kinase; On oxidation the two chains of the homodimer are joined by a disulfide between their Cys43 residues; source: HEK293T, transiently transfected, purified (anti-Flag beads, eluted in PBS with Flag peptide)
# Molecular target: the molecule itself
# Test: cross-linking; disulfide cross-link at Cys43 of freshly purified kinase; diluted in KPE buffer (10 mM potassium phosphate, 1 mM EDTA, pH 7.0) with 0, 5 or 15 mM DTT, 1 h on ice; maleimide in SDS sample buffer, nonreducing 9% SDS-PAGE without heating, anti-Flag Western blot
protein,measurement,value
B1,stoichiometry N,2

# — article PMC9293632, “PKGIα is activated by metal-dependent oxidation in vitro but not in intact cells” (The Journal of Biological Chemistry, 2022)
